Experimental data reported in publication PMC10502012, “Molecular basis of TASL recruitment by the peptide/histidine transporter 1, PHT1” (Nature Communications, 2023).

Target: chicken PHT1 (purified, wild type) (chicken)
Sequence (chain, as listed by the source): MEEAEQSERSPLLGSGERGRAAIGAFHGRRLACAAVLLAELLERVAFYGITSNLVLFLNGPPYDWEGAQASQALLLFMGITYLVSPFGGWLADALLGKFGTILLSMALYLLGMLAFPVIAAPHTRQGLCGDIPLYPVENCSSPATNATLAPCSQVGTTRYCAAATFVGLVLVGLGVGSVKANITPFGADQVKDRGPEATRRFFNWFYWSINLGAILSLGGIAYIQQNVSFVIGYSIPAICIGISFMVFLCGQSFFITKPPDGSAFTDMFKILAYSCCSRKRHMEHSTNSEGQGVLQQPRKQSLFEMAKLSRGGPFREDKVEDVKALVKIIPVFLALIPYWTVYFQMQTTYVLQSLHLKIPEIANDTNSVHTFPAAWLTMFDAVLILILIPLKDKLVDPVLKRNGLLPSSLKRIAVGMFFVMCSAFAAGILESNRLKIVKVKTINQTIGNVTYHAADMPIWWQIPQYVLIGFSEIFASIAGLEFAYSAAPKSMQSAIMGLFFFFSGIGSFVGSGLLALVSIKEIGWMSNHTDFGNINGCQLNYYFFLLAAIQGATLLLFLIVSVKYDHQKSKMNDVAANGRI

Binder | binding result
87 (VHH) VHH: QVQLVESGGGLVQAGGSLRLSCAASGFPVVHLSMAWYRQAPGKEREWVAAINSFGDHTHYADSVKGRFTISRDNAKNTVYLQMNSLKPEDTAVYYCNVKDSGWFWTQYDYWGQGTQVTVSA | binds
55 (VHH) VHH: QVQLVESGGGLVQAGGSLRLSCAASGFPVAARWMRWYRQAPGKEREWVAAINSFGDYTEYADSVKGRFTISRDNAKNTVYLQMNSLKPEDTAVYYCNVKDYGSQWWAYDYWGQGTQVTVSA | binds
109 (VHH) VHH: QVQLVESGGGLVQAGGSLRLSCAASGFPVGHKWMRWYRQAPGKEREWVAAINSHGEFTEYADSVKGRFTISRDNAKNTVYLQMNSLKPEDTAVYYCNVKDYGWTAWAYDYWGQGTQVTVSA | binds
104 (VHH) VHH: QVQLVESGGGLVQAGGSLRLSCAASGFPVWNSWMRWYRQAPGKEREWVAAINSYGDHTEYADSVKGRFTISRDNAKNTVYLQMNSLKPEDTAVYYCNVKDYGEWWNNYDYWGQGTQVTVSA | binds
58 (VHH) VHH: QVQLVESGGGLVQAGGSLRLSCAASGFPVWTRWMRWYRQAPGKEREWVAAINSYGDYTEYADSVKGRFTISRDNAKNTVYLQMNSLKPEDTAVYYCNVRDNGAYWHYYDYWGQGTQVTVSA | binds
57 (VHH) VHH: QVQLVESGGGLVQAGGSLRLSCAASGFPVKQKWMRWYRQAPGKEREWVAAINSNGDYTEYADSVKGRFTISRDNAKNTVYLQMNSLKPEDTAVYYCNVRDYGDQLFEYDYWGQGTQVTVSA | binds
105 (VHH) VHH: QVQLVESGGGLVQAGGSLRLSCAASGFPVYIKWMRWYRQAPGKEREWVAAISSNGEYTEYADSVKGRFTISRDNAKNTVYLQMNSLKPEDTAVYYCNVKDYGHTQWRYDYWGQGTQVTVSA | binds
94 (VHH) VHH: QVQLVESGGGLVQAGGSLRLSCAASGFPVYKASMYWYRQAPGKEREWVAAINSKGWWTEYADSVKGRFTISRDNAKNTVYLQMNSLKPEDTAVYYCNVKDYGYEQLWYDYWGQGTQVTVSA | binds
24 [Sybody 24] (VHH) VHH: QVQLVESGGGSVQAGGSLRLSCAASGAIERIWYLGWFRQAPGKEREGVAALITFTGHTYYADSVKGRFTVSLDNAKNTVYLQMNSLKPEDTALYYCAAAYDGWFSPLTTRRYRYWGQGTQVTVSA | binds
25 [Sybody 25] (VHH) VHH: QVQLVESGGGSVQAGGSLRLSCAASGNIWDIRYLGWFRQAPGKEREGVAALETQYGYTYYADSVKGRFTVSLDNAKNTVYLQMNSLKPEDTALYYCAAADIGYYTPLIHVGWYSYWGQGTQVTVSA | binds
3 [Sybody 3] (VHH) VHH: QVQLVESGGGLVQAGGSLRLSCAASGFPVWAAYMFWYRQAPGKEREWVAAIGSTGWYTRYADSVKGRFTISRDNAKNTVYLQMNSLKPEDTAVYYCHVKDAGWNWWAYDYWGQGTQVTVSA | binds
88 (VHH) VHH: QVQLVESGGGLVQAGGSLRLSCAASGFPVWHSYMYWYRQAPGKEREWVAAIGSTGWYTTYADSVKGRFTISRDNAKNTVYLQMNSLKPEDTAVYYCNVKDQGWIHKQYDYWGQGTQVTVSA | binds
101 (VHH) VHH: QVQLVESGGGLVQAGGSLRLSCAASGFPVWATYMYWYRQAPGKEREWVAAIGSTGWFTVYADSVKGRFTISRDNAKNTVYLQMNSLKPEDTAVYYCNVKDRGWQTAQYDYWGQGTQVTVSA | binds
140 (VHH) VHH: QVQLVESGGGLVQAGGSLRLSCAASGFPVWATYMYWYRQAPGKEREWVAAIGSTGWFTVYADSVKGRFTISRDNAKNTVYLQMNSLKPEDTAVYYCNVKDYGWFEYRYDYWGQGTQVTVSA | binds
44 [Sybody 44] (VHH) VHH: QVQLVESGGGLVQAGGSLRLSCAASGFPVDATSMYWYRQAPGKEREWVAAINSTGWYTEYADSVKGRFTISRDNAKNTVYLQMNSLKPEDTAVYYCNVKDYGWYYWAYDYWGQGTQVTVSA | binds

Other lines, results leading:

binding result | Binder
binds | 89 (VHH) VHH: QVQLVESGGGLVQAGGSLRLSCAASGFSVNYSYMYWYRQAPGKEREWVAAISSWGWYTVYADSVKGRFTISRDNAKNTVYLQMNSLKPEDTAVYYCNVKDRGNDDSSYDYWGQGTQVTVSA
binds | 23 [Sybody 23] (VHH) VHH: QVQLVESGGGSAQAGGSLRLSCAASGNIAHIYYLGWFRQAPGKEREGVAALMTFTGWTYYADSVKGRFTVSLDNAKNTVYLQMNSLKPEDTALYYCAAATHGNWNPLQSDRYQYWGQGTQVTVSA
binds | 6 [Sybody 6] (VHH) VHH: QVQLVESGGGLVQAGGSLRLSCAASGFPVYATWMYWYRQAPGKEREWVAAISSTGWSTYYADSVKGRFTISRDNAKNTVYLQMNSLKPEDTAVYYCNVKDVGFWWDQYDYWGQGTQVTVSA
binds | 134 (VHH) VHH: QVQLVESGGGLVQAGGSLRLSCAASGFPVYQTYMYWYRQAPGKEREWVAAINSTGYFTRYADSVKGRFTISRDNAKNTVYLQMNSLKPEDTAVYYCNVKDLGWWSEQYDYWGQGTQVTVSA
binds | 139 (VHH) VHH: QVQLVESGGGSVQAGGSLRLSCAASGHIRWIKYLGWFRQAPGKEREGVAALYTYEGQTYYADSVKGRFTVSLDNAKNTVYLQMNSLKPEDTALYYCAAAYFGAFYPLSYDAYYYWGQGTQVTVSA
binds | 66 (VHH) VHH: QVQLVESGGGLVQAGGSLRLSCAASGFPVDTSYMYWYRQAPGKEREWVAAIWSWGQWTYYADSVKGRFTISRDNAKNTVYLQMNSLKPEDTAVYYCAVYVGQYYIGQGTQVTVSA
binds | 80 (VHH) VHH: QVQLVESGGGSVQAGGSLRLSCAASGSISSITYLGWFRQAPGKEREGVAALFTWWGWTYYADSVKGRFTVSLDNAKNTVYLQMNSLKPEDTALYYCAAASEGMYWPLTKNHYSYWGQGTQVTVSA
binds | 31 [Sybody 31] (VHH) VHH: QVQLVESGGGLVQAGGSLRLSCAASGFPVSQNWMWWYRQAPGKEREWVAAISSKGQTTHYADSVKGRFTISRDNAKNTVYLQMNSLKPEDTAVYYCNVKDWGAYWYSYDYWGQGTQVTVSA
binds | 20 [Sybody 20] (VHH) VHH: QVQLVESGGGSVQAGGSLRLSCAASGNIWTIRYLGWFRQAPGKEREGVAALDTASGSTYYADSVKGRFTVSLDNAKNTVYLQMNSLKPEDTALYYCAAAWWGYTVPLMWQHYYYWGQGTQVTVSA
binds | 1 [Sybody 1] (VHH) VHH: QVQLVESGGGLVQAGGSLRLSCAASGFPVYSRHMYWYRQAPGKEREWVAAIASQGMKTWYADSVKGRFTISRDNAKNTVYLQMNSLKPEDTAVYYCNVKDTGQWWGLYDYWGQGTQVTVSA
binds | 30 [Sybody 30] (VHH) VHH: QVQLVESGGGLVQAGGSLRLSCAASGFPVKSRRMYWYRQARGKEREWVAAIYSWGATTVYADSVKGRFTISRDNAKNTVYLQMNSLKPEDTAIYYCNVKDWGSWYQYYDYWGQGTQVTVSA
binds | 111 (VHH) VHH: QVQLVESGGGLVQAGGSLRLSCAASGFPVYSSWMRWYRQAPGKEREWVAAINSHGDYTEYADSVKGRFTISRDNAKNTVYLQMNSLKPEDTAVYSCNVKDHGYYMKHYDYWGQGTQVTVSA
binds | 121 (VHH) VHH: QVQLVESGGGLVQAGGSLRLSCAASGFPVEQSWMRWYRQAPGKEREWVAAINSWGEYTEYADSVKGRFTISRDNAKNTVYLQMNSLKPEDTAVYYCNVKDQGYEHQRYDYWGQGTQVTVSA
binds | 100 (VHH) VHH: QVQLVESGGGLVQAGGSLRLSCAASGFPVAQRVMHWYRQAPGKEREWVAAIHSAGAQTFYADSVKGRFTISRDNAKNTVYLQMNSLKPEDTAVYYCNVKDDGKYYWLYDYWGQGTQVTVSA
binds | 48 [Sybody 48] (VHH) VHH: QVQLVESGGGLVQAGGSLRLSCAASGFPVRWHYMYWYRQAPGKEREWVAAISSHGTYTYYADSVKGRFTISRDNAKNTVYLQMNSLKPEDTAVYYCSVKDIGRWFSKYDYWGQGTQVTVSA
binds | 2 [Sybody 2] (VHH) VHH: QVQLVESGGGLVQAGGSLRLSCAASGFPVNTRTMHWYRQAPGKEREWVAAIYSSGQNTFYADSVKGRFTISRDNAKNTVYLQMNSLKPEDTAVYYCNVKDWGNIWEYDYWGQGTQVTVSA
binds | 116 (VHH) VHH: QVQLVESGGGPVQAGGSLRLSCAASGFPVNTRTMHWYRQAPGKEREWVAAIYSSGQNTFYADSVKGRFTISRDNAKNTVYLQMNSLKPEDTAVYYCNVKDWGNIWEYDYWGQGTQVTVSA
binds | 19 [Sybody 19] (VHH) VHH: QVQLVESGGGSVQAGGSLRLSCAASGNIHAINYLGWFRQAPGKEREGVAALDTWVGYTYYADSVKGRFTVSLDNAKNTVYLQMNSLKPEDTALYYCAAAEWGWQGPLKMRAYEYWGQGTQVTVSA
